Source: the supplement of paper PMC10724198
± gives the standard deviation of the averaged measurements.

Test system: Saccharomyces cerevisiae
Assay: protein stability index of tFT-peptide fusion (C-terminal peptide) (PSI (0-1 scale)); higher = more stable (slower turnover)
Conditions: genetic background: wild type; temperature: 30 C
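Also: PSI is a weighted mean of sequencing reads over stability bins, variants kept only with over 10 reads, mCherry proximal and sfGFP distal, peptide attached via GGGS linker.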

| Sequence | protein stability index |
| --- | --- |
| PPPCPPPPLSRP | 0.666 ± 0.058 |
| YYAGFTAFGSLA | 0.709 ± 0.079 |
| MNPRLTNKNNSS | 0.765 ± 0.058 |
| GRMGGWCVSGEV | 0.658 ± 0.017 |
| LSCFVFRLSWFL | 0.556 ± 0.11 |
| RYASSRTLFAAV | 0.672 ± 0.069 |
| KRIKTEKRRSKK | 0.748 ± 0.046 |
| HLPPFLRPPFPL | 0.686 ± 0.017 |
| GAVQGVALRGGS | 0.744 ± 0.1 |
| CRTSRSSSLPPY | 0.7218 ± 0.0054 |
| VIVRAFRWNLVR | 0.605 ± 0.029 |
| PPPTVRLSCVPP | 0.794 ± 0.031 |
| IVDYSRYVIGLE | 0.663 ± 0.0095 |
| SHRLPPPPPPPS | 0.758 ± 0.14 |
| SRTDGLIYTALI | 0.676 ± 0.021 |
| RPVVASRQASHS | 0.703 ± 0.021 |
| AFMVFCRSLLAP | 0.684 ± 0.014 |
| PSARASSRTAPS | 0.661 ± 0.015 |
| VGYGTGGAVGVE | 0.691 ± 0.041 |
| PLPPSHPPTGPP | 0.661 ± 0.012 |
| STLVIPFPPFHF | 0.7 ± 0.018 |
| KYPVDHHTPLSS | 0.703 ± 0.021 |
| SHSHMRRLKMYR | 0.717 ± 0.089 |
| VPDRIFRSASQT | 0.714 ± 0.0049 |
| ENRNKSYEISRP | 0.7015 ± 0.0052 |

| Sequence | protein stability index |
| --- | --- |
| RKKGGNSKKGKN | 0.774 ± 0.12 |
| WFNRRISPISGI | 0.676 ± 0.059 |
| PRYSVRGQPRET | 0.728 ± 0.0061 |
| PVLHSPHSLPPR | 0.734 ± 0.11 |
| SDVAWVEAPPRS | 0.678 ± 0.097 |
| LPLPSPLLPPRP | 0.712 ± 0.0051 |
| WVSMDFTGLVNG | 0.628 ± 0.015 |
| GSNTTKRESQPH | 0.708 ± 0.067 |
| KKRKNNKIRKKK | 0.723 ± 0.0053 |
| LISADTFVHFND | 0.725 ± 0.02 |
| LPPTPSSPPPPL | 0.709 ± 0.06 |
| APYLPACALSSL | 0.706 ± 0.015 |
| GLLPTPPASLLY | 0.6888 ± 0.00085 |
| LPISASLLSFPL | 0.716 ± 0.048 |
| VHENVGSGYNLE | 0.734 ± 0.14 |
| SFQCTCLSPCTG | 0.652 ± 0.07 |
| SPTRMSAFVRLD | 0.739 ± 0.071 |
| PLPRPPSPPYPP | 0.65 ± 0.035 |
| PRFSLFSTDHYY | 0.679 ± 0.16 |
| LAEFTCTQGCSY | 0.67 ± 0.088 |
| TNALVGEWVGLG | 0.795 ± 0.11 |
| LRVRTLGLPLVY | 0.569 ± 0.026 |
| ILHCVCFGLFHF | 0.614 ± 0.014 |
| KTVKNGKEVKIH | 0.635 ± 0.12 |
| GPGYVFVGSGGW | 0.692 ± 0.027 |

| Sequence | protein stability index |
| --- | --- |
| PPLQFFLYRSWV | 0.664 ± 0.044 |
| YSRGVSGSDKFP | 0.747 ± 0.16 |
| GWGGGGFRVVVG | 0.782 ± 0.049 |
| IRPSVCQAPDMR | 0.679 ± 0.042 |
| CLPRFLGLGGRV | 0.68 ± 0.072 |
| VSRACYTPPQFY | 0.68 ± 0.13 |
| PLTTIPSPNSLE | 0.666 ± 0.032 |
| SMCAFRPFPFSS | 0.70891 ± 0.00011 |
| KKKKKKKRNKHN | 0.706 ± 0.048 |
| GSGVGACRGVKV | 0.685 ± 0.034 |
| CHILGSINKIKE | 0.7 ± 0.039 |
| PLSPPPAPLPSS | 0.747 ± 0.071 |
| RPPRPAATGVQH | 0.683 ± 0.018 |
| LLPPGSSSRVAL | 0.733 ± 0.022 |
| ERLRLVPRKGLL | 0.714 ± 0.048 |
| LWPQFPPRQLVD | 0.755 ± 0.069 |
| RSINTETPSKNE | 0.613 ± 0.056 |
| YPHAGSTSLLLF | 0.685 ± 0.0073 |
| ISIFTCLGRFSL | 0.677 ± 0.037 |
| PEGCQDGASPAE | 0.759 ± 0.021 |
| SRPPILAHPTPS | 0.707 ± 0.049 |
| HSPHISAPPLPY | 0.588 ± 0.024 |
| LLAFRTVSVGVL | 0.5212 ± 0.0014 |
| KKKKREKSKHRK | 0.714 ± 0.022 |
| ARQPMHYRITGC | 0.644 ± 0.063 |

| Sequence | protein stability index |
| --- | --- |
| DVGFGWGGGVGG | 0.76 ± 0.014 |
| FMACGVNIELRV | 0.643 ± 0.0088 |
| WGGGCGRRIGCR | 0.7193 ± 0.007 |
| GWLASPHFPYAY | 0.6883 ± 0.001 |
| PPPRPDPPSLLD | 0.545 ± 0.0085 |
| LRPVPLCPAALL | 0.695 ± 0.037 |
| GGGGGGFRVVVG | 0.705 ± 0.03 |
| SCLSGALPPFLA | 0.668 ± 0.042 |
| HCLIPGEIHRIS | 0.6741 ± 0.0037 |
| CSERGQVCAVVY | 0.553 ± 0.066 |
| PQLCSPLITIGV | 0.5961 ± 0.0032 |
| WDGWPTRSGGTG | 0.738 ± 0.023 |
| LRPASPVGRQTQ | 0.691 ± 0.04 |
| KERYKNHGQKAS | 0.683 ± 0.017 |
| NKRKNVFESTNA | 0.678 ± 0.019 |
| APVGLTFNSSLL | 0.7107 ± 0.0032 |
| PFPRGCCRLLSP | 0.707 ± 0.012 |
| NPQTVNSPIFPT | 0.752 ± 0.018 |
| LPDPPLSPPPVR | 0.675 ± 0.016 |
| SESVGLCLGVTW | 0.767 ± 0.05 |
| RPPFPPLPLPPP | 0.674 ± 0.088 |
| NKDEVHRRRGRI | 0.718 ± 0.017 |
| SIRHPYEFFARS | 0.738 ± 0.031 |
| TRRKKKKNTGTK | 0.71 ± 0.022 |
| CLIGHFFSVIFY | 0.5239 ± 0.0051 |

| Sequence | protein stability index |
| --- | --- |
| VLPAGAGKGCVG | 0.653 ± 0.052 |
| KRITLNADIIIK | 0.629 ± 0.11 |
| FGVTRSPLDPLF | 0.665 ± 0.043 |
| WLVCGRSFVFTL | 0.549 ± 0.058 |
| PLRALLPTRCNL | 0.732 ± 0.067 |
| GRGGGGVEPCFV | 0.669 ± 0.07 |
| YCMRPLCLEMFR | 0.682 ± 0.016 |
| ISTSPRCCPRLL | 0.714 ± 0.023 |
| PPPPPLPLPPPF | 0.697 ± 0.023 |
| SAPRRPPLIFPG | 0.672 ± 0.11 |
| GGGGGNAGSHLG | 0.673 ± 0.018 |
| FTQDYRRKTMSH | 0.604 ± 0.064 |
| LVDHLEMSTTSL | 0.724 ± 0.017 |
| FGWEGGEEMAGG | 0.788 ± 0.0097 |
| LPPPRPPASPSL | 0.677 ± 0.033 |
| LFCVSGSRPLTF | 0.714 ± 0.034 |
| WSSCISCLLRGV | 0.688 ± 0.066 |
| HSGLTGLRRLVA | 0.594 ± 0.012 |
| PIALPSPSSPIF | 0.669 ± 0.015 |
| CIQRYSTAHPYH | 0.679 ± 0.06 |
| AYRRPKFLEGTF | 0.694 ± 0.1 |
| PLFASLHPSGPL | 0.699 ± 0.032 |
| FGRFVLSCFDRK | 0.661 ± 0.019 |
| FGRGGGGFLTLV | 0.647 ± 0.0034 |
| SVPNYDAVGAGD | 0.667 ± 0.097 |

| Sequence | protein stability index |
| --- | --- |
| DVRNVCNISDEV | 0.654 ± 0.022 |
| RCLRGGMLGFGR | 0.627 ± 0.052 |
| APHPYPPTPPAP | 0.725 ± 0.014 |
| VFITSLWTPLLL | 0.617 ± 0.019 |
| HHRNNTPLNHSY | 0.63 ± 0.007 |
| RYVVTVQGSGGE | 0.688 ± 0.045 |
| GSVRCGLRVRVG | 0.605 ± 0.047 |
| YTPDFPTIVSFI | 0.694 ± 0.14 |
| DQKSGCPVRIYR | 0.623 ± 0.029 |
| RNLCHILRHERT | 0.708 ± 0.088 |
| YGIGVRMPRSYW | 0.709 ± 0.035 |
| SRSLHGTEEYRE | 0.644 ± 0.099 |
| WGACSALRRLGY | 0.684 ± 0.044 |
| HIKAEKRKKKTS | 0.608 ± 0.024 |
| PFPLPPLHSSHR | 0.734 ± 0.03 |
| LPPPTPPPPLLP | 0.779 ± 0.093 |
| PLPRTPTLPTPE | 0.635 ± 0.036 |
| LKRMQKYIDMSS | 0.714 ± 0.11 |
| PYFQASLSCLPS | 0.744 ± 0.036 |
| QTIRNLEVPLTG | 0.751 ± 0.017 |
| AGGPGWGALVGA | 0.645 ± 0.047 |
